B1: PRT-514 (protein)
chain: MITSVWTKGVTPPTDFIKGEDVFHAPYKAGQGWYDITKAFDGGDDLLCGAATAGNMLHWWFDQNKEEIEAYLKKHPEKQKIMFGDQELLDVRKVINTKDSQTNSALFNYFKDKAFPNLSARRLGVMPDLVLDMFINGYYLNVYKTQTTDVNRQEQTKDRRGGIFDAVFGRGDQTKLLTERHDFKEKTLNEISQLIKQELTEGKALGLSHTYANVRINHVINLWGADFDAEGNLEAIYVTDSDSNASIGMKKYFVGVNSAGKVAISAKEIKEDNIGAQVLGLFTLSTGQKIWNKTNLEHHHHHH
B2: PRT-518 (protein)
chain: MVTSVWTKGVTPPTDFIKGEDVFHAPYKAGQGWYDITKTFNGKDNLLCGAATAGNMLHWWFDQNKEYIEAYLKKHPEKQKIIFNNQELFDLKAAINTKGSQKNSELFNYFRDKAFPNLSARRLGVFPDLVLDMFINGYYLNVTKTQTTDVNRTYQEKDKRGGIFDAVFTRGVQSKLLTSRHDFKEKGLKEISDLIKQELTEGKALGLSHTYANVRINHVINLWGADFDSDGNLKAIYVTDSDTNASIGMKKYFVGVNSAGKVAISAKEIKEDNIGAQVLGLFTLSTGQDIWNQTNLEHHHHHH
B3: PRT-685 (protein)
chain: MQITSVWTKGVTPLTPEQFRNNNEDVIHAPYLPNQGWYDITKAFNGKDNLLCGAATAGNMLHWWFDQNKEEIEAYLKKYPEKQKIIFNNQELFDLRKAINTKDSQTNSALFNYFRDKAFPNLSARQLGVMPDLVLDMFINGYYLNVFKTQSTDVNRPYQDKDKRGGIFDHVFNRGDQTTLLTARHDLKNKTLNDISTIIKQELSSGKALALSHTYANVSISHVINLWGADFNAEGNLEAIYVTDSDANASIGMKKYYVGRNAHGHVAISAKKIEGENIGAQVLGLFTLSSGKEIWQKLSLEHHHHHH
B4: PRT-525 (protein)
chain: MITSVWTKGVTPPAKFTQGEDVFHAPYVANQGWYDITKTFNGKDNLLCGAATAGNMLHWWFDQNKEEIEAYLKKHPEKQKIIFNNQELFDLKAVINTKDSQTNSALFNYFKDKAFPNLSARRLGVFPDLVLDMFINGYYLNVYKTQTTDVNRTYQTKDRRGGIFDAVFTRGVQSKLLTERHDLKNKTLKEISDLIKQELTEGKALGLSHTYANVRINHVINLWGADFDSNGNLEAIYVTDSDTNASIGMKKYFVGVNSAGKVAISAKEIKEDNIGAQVLGLFTLSTGQDIWNQTNLEHHHHHH
B5: PRT-522 (protein)
chain: MITSVWTKGVTPPTDFIKGEDVFHAPYKAGQGWYDITKTFNGKDNLLCGAATAGNMLHWWFDQNKEEIEAYLKKHPEKQKIIFNNQELFDLKAVINTKDSQTNSALFNYFKDKAFPNLSARRLGVFPDLVLDMFINGYYLNVYKTQTTDVNRTYQTKDRRGGIFDAVFTRGVQSKLLTERHDFKEKTLKEISDLIKQELTEGKALGLSHTYANVRINHVINLWGADFDSNGNLEAIYVTDSDTNASIGMKKYFVGVNSAGKVAISAKEIKEDNIGAQVLGLFTLSTGQDIWNQTNLEHHHHHH
B6: PRT-693 (protein)
chain: MQITSVWTKGVIPPTPEQFRYNNEDVIHAPYLPNQGWYDITKTFNGGDNLLCGAATAGNMLHWWFDQNKTEIEAYLSKYPEKQKIIFNNQELFDLRAAINTKDSQTNSQLFNYFRDKAFPNLSARQLGVMPDLVLDMFINGYYLNVFKTQSTDVNRPYQDRDKRGGIFDHVFGRGDQTTLLTARHDLKNGTLNDISTLIKQELQSGKALALSHTYANVSISHVINLWGADFNAEGNLEAIYVTDSDANSSIGMKKYYVGVNAHGKVAISAKKIEGENIGAQVLGLFTLSSGKEIWQKLSLEHHHHHH
B7: PRT-452 (protein)
chain: MVTSVWTKGVTPPANFTQGEDVFHAPYKANQGWYDITKAFDGGDDLLCGAATAGNMLHWWFDQNKDQIEAYLKEHPEKQKINFNGEQMFDVKEAIDTKDDQTNSELFNYFKEKAFPYLSTKHLGVFPDHVLDMFINGYRLSLTNHGPTPVKEGSKDPRGGIFDAVFTRGDQSKLLTSRHDLKNKTLKEISDLIKQELTEGKALALSHTYANVRINHVINLWGADFDSNGNLEAIYVTDSDSNASIGMKKYFVGVNSAGKVAISAKEIEDDNIGAQVLGLFTLSTGQDIWNQTNLEHHHHHH
B8: PRT-464 (protein)
chain: MVTSVWTKGVTPPANFTQGEDVFHAPYVANQGWYDITKAFDGGDDLLCGAATAGNMLHWWFDQNKDQIERYLKEHPEKQKINFNGEQMFDVKEAIDTKDSQTNSELFNYFKEKAFPYLSTKHLGVFPDHVLDMFINGYRLSLTNHGPTPVKEGSKDPRGGIFDAVFTRGDQSKLLTSRHDLKNKTLKEISDLIKQELTEGKALGLSHTYANVRINHVINLWGADFDSEGNLKAIYVTDSDSNASIGMKKYFVGVNSAGKVAISAKEIKEDNIGAQVLGLFTLSTGQDIWNQTNLEHHHHHH
B9: PRT-486 (protein)
chain: MVTSVWTKGVTPPTDFIKGEDVFHAPYKAGQGWYDITKTFNGKDNLLCGAATAGNMLHWWFDQNKDQIERYLKEHPEKQKIIFNNQELFDLKAAIDTKDSQTDSKLFEYFKEKAFPYLSTKHLGVFPDHVLDMFINGYRLSLTNHGPTPVKEGSKDKRGGIFDAVFTRGVQSKLLTSRHDFKEKTLKEISDLIKQELTEGKALGLSHTYANVRINHVINLWGADFDSEGNLKAIYVTDSDTNASIGMKKYFVGVNSAGKVAISAKEIKEDNIGAQVLGLFTLSTGQDIWNQTNLEHHHHHH
B10: PRT-487 (protein)
chain: MVTSVWTKGVTPPTDFIKGEDVFHAPYKAGQGWYDITKTFNGKDNLLCGAATAGNMLHWWFDQNKDQIERYLKEHPEKQKIIFNNQELFDLKAAIDTKDSQTDSKLFEYFKEKAFPYLSTKHLGVFPDHVLDMFINGYRLSLTNHGPTPVKEGSKDKRGGIFDAVFTRGVQSKLLTSRHDLKNKTLKEISDLIKQELTEGKALGLSHTYANVRINHVINLWGADFDSEGNLKAIYVTDSDTNASIGMKKYFVGVNSAGKVAISAKEIKEDNIGAQVLGLFTLSTGQDIWNQTNLEHHHHHH
B11: PRT-483 (protein)
chain: MVTSVWTKGVTPPTDFIKGEDVFHAPYKAGQGWYDITKTFNGKDNLLCGAATAGNMLHWWFDQNKDQIEAYLKEHPEKQKIIFNNQELFDLKAAIDTKDDQTNSKLFEYFKEKAFPYLSTKHLGVFPDHVLDMFINGYRLSLTNHGPTPVKEGSKDKRGGIFDAVFTRGVQSKLLTSRHDLKNKTLKEISDLIKQELTEGKALALSHTYANVRINHVINLWGADFDSNGNLEAIYVTDSDTNASIGMKKYFVGVNSAGKVAISAKEIEDDNIGAQVLGLFTLSTGQDIWNQTNLEHHHHHH
B12: PRT-493 (protein)
chain: MVTSVWTKGVTPPTNFTYGEDVLHAPYVANQGWYDITKTFNGKDNLLCGAATAGNMLHWWFDQNKEQIENYLKKHPEKQKIIFNNQELFDLKAAIDTKDSQLDSKLFEYFKEKAFPYLSTKHLGVFPDHVIDMFINGYRLSLTNHGPTPVKRGSKDKRGGIFDAVFTRGVQSKLLTNRHDLKNKTLKEISDLIKQELTEGKALGISHTYANVRINHVINLWGADFDAEGNLEAIYVTDSDTNASIGMKKYFVGVNSNGKVAISAKEIEEDNIGAQVLGLFTLSTGQDIWNQTNLEHHHHHH
B13: PRT-504 (protein)
chain: MITSVWTKGVTPPTDFIKGEDVFHAPYKAGQGWYDITKAFDGGDDLLCGAATAGNMLHWWFDQNKEYIEAYLKKHPEKQKIMFGDQELLDVRKAINTKGSQKNSELFNYFRDKAFPNLSARRLGVMPDLVLDMFINGYYLNVTKTQTTDVNRTYQEKDKRGGIFDAVFTRGDQSKLLTSRHDLKNKGLNEISQLIKQELTEGKALGLSHTYANVRINHVINLWGADFDADGNLEAIYVTDSDSNASIGMKKYFVGVNSAGKVAISAKEIKEDNIGAQVLGLFTLSTGQDIWNQTNLEHHHHHH
B14: PRT-471 (protein)
chain: MVTSVWTKGVTPPTDFIYGEDVLHAPYKAGQGWYDITKAFDGGDDLLCGAATAGNMLHWWFDQNKEQIENYLKKHPEKQKINFNGEQMFDVKEAIDTKDSQTNSELFNYFKEKAFPYLSTKHLGVFPDHVIDMFINGYRLSLTNHGPTPVKRGSKDPRGGIFDAVFTRGDQSKLLTNRHDFKEKTLKEISDLIKQELTEGKALGISHTYANVRINHVINLWGADFDAEGNLEAIYVTDSDSNASIGMKKYFVGVNSNGKVAISAKEIEEDNIGAQVLGLFTLSTGQDIWNQTNLEHHHHHH

Target: pooled human IgG (human IgG1, 2, 3 and 4)

Row | Protein | Enzyme Activity Endpoint Assay: Fab′2 [ng/µL] | Enzyme Activity Endpoint Assay: Fc [ng/µL] | Enzyme Activity Endpoint Assay: IgG [ng/µL] | Enzyme Activity Endpoint Assay: scIgG [ng/µL]
1 | B1 | 64 | 37 | 0 | 0
2 | B2 | 1220 | 423 | 0 | 0
3 | B3 | 1200 | 448 | 0 | 0
4 | B4 | 1340 | 386 | 0 | 0
5 | B5 | 736 | 253 | 0 | 0
6 | B6 | 1280 | 436 | 0 | 0
7 | B7 | 0 | 0 | 1870 | 0
8 | B8 | 0 | 58 | 0 | 0
9 | B9 | 145 | 210 | 107 | 627
10 | B10 | 0 | 22 | 0 | 0
11 | B11 | 1260 | 459 | 0 | 0
12 | B12 | 1170 | 412 | 0 | 0
13 | B13 | 1310 | 442 | 0 | 0
14 | B14 | 1110 | 357 | 0 | 0

From US20250027068
